Data from FireProtDB (doi:10.1110/ps.03220403).

B1: C205S, Q8NJY3 (parent)
chain: MLKSALLLGAAAVSVQSASIPTIPANLEPRQIRSLCELYGYWSGNGYELLNNLWGKDTATSGWQCTYLDGTNNGGIQWSTAWEWQGAPDNVKSYPYVGKQIQRGRKISDINSMRTSVSWTYDRTDIRANVAYDVFTARDPDHPNWGGDYELMIWLARYGGIYPIGTFHSQVNLAGRTWDLWTGYNGNMRVYSFLPPSGDIRDFSCDIKDFFNYLERNHGYPAREQNLIVYQVGTECFTGGPARFTCRDFRADLW
B2: V226C, O00095 (parent)
chain: MKFLQVLPALIPAALAQTSCDQWATFTGNGYTVSNNLWGASAGSGFGCVTAVSLSGGASWHADWQWSGGQNNVKSYQNSQIAIPQKRTVNSISSMPTTASWSYSGSNIRANVAYDLFTAANPNHVTYSGDYELMIWLGKYGDIGPIGSSQGTVNVGGQSWTLYYGYNGAMQVYSFVAQTNTTNYSGDVKNFFNYLRDNKGYNAAGQYVLSYQFGTEPFTGSGTLNVASWTASIN

Tests used:
[1] = variants of: B1; conditions: Trichocladium griseum; pH 8; Thermal; CD; Bis-Tris propane ammonium acetate 0.05 M 0.05 M; reversible: No; structure 1OLR; whole UniProt chain shown
[2] = variants of: B2; conditions: Hypocrea jecorina; pH 8; Thermal; CD; Bis-Tris propane ammonium acetate 0.05 M 0.05 M; reversible: No; structure 1H8V; whole UniProt chain shown

Row | Variant | Tm [1] [°C] | change of melting temperature, mutant - wild type (higher = more stable) [1] [°C] | Tm [2] [°C] | change of melting temperature, mutant - wild type (higher = more stable) [2] [°C]
1 | C205S | 68.9 | 0.2 |  | 
2 | C205G | 69.9 | 1.2 |  | 
3 | C246S | 63.1 | -5.6 |  | 
4 | C246V | 69.5 | 0.8 |  | 
5 | C236P | 59.5 | -9.2 |  | 
6 | C236S | 63.3 | -5.4 |  | 
7 | V226C |  |  | 54.5 | 0.1
8 | P217C V226C |  |  | 55.1 | 0.7
9 | G186C P217C |  |  | 55.1 | 0.7
10 | G186C |  |  | 56.5 | 2.1
11 | P217C V226C G186C |  |  | 54.5 | 0.1
12 | P217C |  |  | 58.3 | 3.9
